B1: Melanophilin (Homo sapiens), Q9BV36 (parent)
chain: MGKKLDLSKLTDEEAQHVLEVVQRDFDLRRKEEERLEALKGKIKKESSKRELLSDTAHLNETHCARCLQPYQLLVNSKRQCLECGLFTCKSCGRVHPEEQGWICDPCHLARVVKIGSLEWYYEHVKARFKRFGSAKVIRSLHGRLQGGAGPELISEERSGDSDQTDEDGEPGSEAQAQAQPFGSKKKRLLSVHDFDFEGDSDDSTQPQGHSLHLSSVPEARDSPQSLTDESCSEKAAPHKAEGLEEADTGASGCHSHPEEQPTSISPSRHGALAELCPPGGSHRMALGTAAALGSNVIRNEQLPLQYLADVDTSDEESIRAHVMASHHSKRRGRASSESQIFELNKHISAVECLLTYLENTVVPPLAKGLGAGVRTEADVEEEALRRKLEELTSNVSDQETSSEEEEAKDEKAEPNRDKSVGPLPQADPEVGTAAHQTNRQEKSPQDPGDPVQYNRTTDEELSELEDRVAVTASEVQQAESEVSDIESRIAALRAAGLTVKPSGKPRRKSNLPIFLPRVAGKLGKRPEDPNADPSSEAKAMAVPYLLRRKFSNSLKSQGKDDDSFDRKSVYRGSLTQRNPNARKGMASHTFAKPVVAHQS

In one assay the parent is B1. The conditions noted are these: with rb27a_human RAB27A.
For the variant R35V, the “effect of a mutation on the interaction” value is “disrupting interaction”. Same read-out and setting: next, R35K: “disrupting interaction”; R35F: “disrupting interaction”.

Variants of B1 are the subject of a further assay. The conditions noted are these: with rb27a_human RAB27A. The source holds these as a separate data set.
Turning to R35W, the “effect of a mutation on the interaction” value is listed as “disrupting interaction”.

(Values after IntAct's records for PubMed 12897212.)
